Experimental data taken from publication PMC12170172, “Initiation of ERAD by the bifunctional complex of Mnl1/Htm1 mannosidase and protein disulfide isomerase” (Nature Structural & Molecular Biology, 2025).

Legend:
Details in all cases: both partners purified
[1] = biological target: T1, Pdi1 (protein disulfide isomerase) (S. cerevisiae, UniProt P17967 29-522); experiment: cross-linking; competition: RBΔS, RBun or RBsc incubated with Mnl1–Pdi1 complex at the indicated molar ratios (tenfold excess in Fig. 6) in 25 mM HEPES pH 7.4, 150 mM NaCl, 0.1% Nonidet P-40, 2 mM CaCl2, 30 °C 30 min; then DPS 30 °C 30 min, N-ethylmaleimide; SDS-PAGE, Coomassie blue
T1 construct: Pdi1, protein disulfide isomerase of S. cerevisiae, untagged; Trx domains a, b, b′ and a′; amino acids 24–500 could be modelled; source: S. cerevisiae, overexpressed together with Mnl1–FLAG (GAL1 promoter), purified as a complex
T1 sequence (looked up): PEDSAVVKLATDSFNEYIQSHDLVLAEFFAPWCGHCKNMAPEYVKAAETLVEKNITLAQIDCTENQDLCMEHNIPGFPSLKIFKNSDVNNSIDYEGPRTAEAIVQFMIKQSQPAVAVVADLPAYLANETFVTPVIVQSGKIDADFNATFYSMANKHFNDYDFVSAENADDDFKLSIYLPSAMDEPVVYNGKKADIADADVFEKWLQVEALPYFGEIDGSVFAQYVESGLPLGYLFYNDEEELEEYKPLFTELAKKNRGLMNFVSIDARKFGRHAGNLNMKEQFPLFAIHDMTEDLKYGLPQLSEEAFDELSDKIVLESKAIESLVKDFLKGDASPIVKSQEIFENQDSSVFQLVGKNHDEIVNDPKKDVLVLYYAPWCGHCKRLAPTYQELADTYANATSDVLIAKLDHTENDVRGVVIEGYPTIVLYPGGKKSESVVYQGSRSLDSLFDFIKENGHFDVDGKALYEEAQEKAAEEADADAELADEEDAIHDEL

[2] = biological target: T2, Mnl1 (C579S)–Pdi1 complex (S. cerevisiae, UniProt P38888 21-796; P17967 29-522, C579S); experiment: pull-down; as a6, but the Mnl1–Pdi1 complex was pretreated with DPS to induce disulfides between the Mnl1 loop cysteines and the active-site cysteines of Pdi1
T2 construct: Mnl1 (Htm1) of S. cerevisiae with a substituted loop cysteine; Pdi1 of S. cerevisiae, untagged; source: S. cerevisiae, overexpressed, purified (anti-FLAG M2 resin, Superdex 200); not shown: FLAG, C-terminal, kept
T2 sequence (looked up) 1: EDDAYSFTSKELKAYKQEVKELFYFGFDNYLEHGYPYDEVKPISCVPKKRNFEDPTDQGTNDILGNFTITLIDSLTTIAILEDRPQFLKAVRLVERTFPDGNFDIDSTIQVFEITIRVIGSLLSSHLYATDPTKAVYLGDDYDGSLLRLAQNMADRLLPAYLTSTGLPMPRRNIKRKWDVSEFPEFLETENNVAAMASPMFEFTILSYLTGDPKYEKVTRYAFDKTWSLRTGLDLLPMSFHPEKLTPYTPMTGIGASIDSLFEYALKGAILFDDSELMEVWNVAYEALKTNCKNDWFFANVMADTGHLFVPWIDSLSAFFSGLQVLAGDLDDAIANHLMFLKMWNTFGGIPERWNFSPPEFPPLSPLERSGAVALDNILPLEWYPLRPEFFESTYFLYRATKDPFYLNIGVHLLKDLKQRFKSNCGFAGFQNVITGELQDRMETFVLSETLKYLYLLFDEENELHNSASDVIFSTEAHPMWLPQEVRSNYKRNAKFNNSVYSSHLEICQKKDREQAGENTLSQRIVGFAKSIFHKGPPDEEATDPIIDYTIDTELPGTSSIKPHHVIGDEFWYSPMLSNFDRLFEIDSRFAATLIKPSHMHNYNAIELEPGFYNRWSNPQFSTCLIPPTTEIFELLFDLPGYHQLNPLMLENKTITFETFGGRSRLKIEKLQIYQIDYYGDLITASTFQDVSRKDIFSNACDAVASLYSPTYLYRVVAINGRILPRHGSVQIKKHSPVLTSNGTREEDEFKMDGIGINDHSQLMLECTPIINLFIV
T2 sequence (looked up) 2: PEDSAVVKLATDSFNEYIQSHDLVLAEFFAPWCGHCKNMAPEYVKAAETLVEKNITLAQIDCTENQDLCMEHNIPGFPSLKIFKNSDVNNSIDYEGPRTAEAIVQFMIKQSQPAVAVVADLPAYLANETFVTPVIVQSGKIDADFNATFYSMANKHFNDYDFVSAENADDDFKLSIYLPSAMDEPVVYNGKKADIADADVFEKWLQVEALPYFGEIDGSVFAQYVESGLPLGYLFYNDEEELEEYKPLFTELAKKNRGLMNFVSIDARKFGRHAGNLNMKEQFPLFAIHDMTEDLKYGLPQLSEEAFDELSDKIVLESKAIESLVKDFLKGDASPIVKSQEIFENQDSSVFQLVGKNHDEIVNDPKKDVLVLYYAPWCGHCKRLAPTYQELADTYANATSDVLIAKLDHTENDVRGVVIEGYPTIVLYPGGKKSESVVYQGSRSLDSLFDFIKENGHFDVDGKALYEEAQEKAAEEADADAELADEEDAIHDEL

[3] = biological target: T3, Mnl1 (C579S;C644S)–Pdi1 complex (S. cerevisiae, UniProt P38888 21-796; P17967 29-522, C579S | C644S); experiment: as above
T3 construct: Mnl1 (Htm1) of S. cerevisiae with both loop cysteines substituted; Pdi1 of S. cerevisiae, untagged; also called double-cysteine mutant; source: S. cerevisiae, overexpressed, purified (anti-FLAG M2 resin, Superdex 200); not shown: FLAG, C-terminal, kept
T3 sequence (looked up) 1: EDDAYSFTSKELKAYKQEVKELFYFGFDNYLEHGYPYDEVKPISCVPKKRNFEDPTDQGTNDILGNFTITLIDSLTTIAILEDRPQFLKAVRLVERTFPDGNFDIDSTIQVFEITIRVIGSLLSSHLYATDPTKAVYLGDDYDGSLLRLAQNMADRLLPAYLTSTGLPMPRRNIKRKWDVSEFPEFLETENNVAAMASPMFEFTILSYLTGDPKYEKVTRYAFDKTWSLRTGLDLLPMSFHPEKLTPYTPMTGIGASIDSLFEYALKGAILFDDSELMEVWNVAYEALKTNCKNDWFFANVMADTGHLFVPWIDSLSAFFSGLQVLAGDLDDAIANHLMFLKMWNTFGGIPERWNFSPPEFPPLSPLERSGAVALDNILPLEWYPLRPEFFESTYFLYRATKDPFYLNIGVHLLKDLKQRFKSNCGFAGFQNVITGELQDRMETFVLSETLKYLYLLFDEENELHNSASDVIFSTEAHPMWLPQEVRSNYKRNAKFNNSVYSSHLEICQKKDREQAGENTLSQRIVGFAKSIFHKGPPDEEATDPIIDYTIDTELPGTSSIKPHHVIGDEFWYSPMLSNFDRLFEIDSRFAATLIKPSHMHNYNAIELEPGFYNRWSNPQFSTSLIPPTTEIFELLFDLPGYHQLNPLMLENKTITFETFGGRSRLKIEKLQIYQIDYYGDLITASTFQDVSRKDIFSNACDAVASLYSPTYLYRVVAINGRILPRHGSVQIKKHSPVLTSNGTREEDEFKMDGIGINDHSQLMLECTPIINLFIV
T3 sequence (looked up) 2: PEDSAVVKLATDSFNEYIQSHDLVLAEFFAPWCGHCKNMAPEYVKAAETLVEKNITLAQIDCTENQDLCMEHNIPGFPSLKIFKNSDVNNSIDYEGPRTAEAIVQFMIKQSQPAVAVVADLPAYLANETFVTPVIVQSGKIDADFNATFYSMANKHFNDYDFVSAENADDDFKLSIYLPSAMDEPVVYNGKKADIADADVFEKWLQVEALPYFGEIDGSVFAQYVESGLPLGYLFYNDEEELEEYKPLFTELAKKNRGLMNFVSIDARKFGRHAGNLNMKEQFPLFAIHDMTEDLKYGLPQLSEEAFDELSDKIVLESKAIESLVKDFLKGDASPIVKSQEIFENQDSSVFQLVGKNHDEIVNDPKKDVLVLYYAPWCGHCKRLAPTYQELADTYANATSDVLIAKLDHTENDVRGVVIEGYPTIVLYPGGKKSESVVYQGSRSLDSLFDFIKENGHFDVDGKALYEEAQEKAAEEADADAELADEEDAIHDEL

B1: RNase B, completely unfolded (reduced and denatured) (enzyme, UniProt P61823 27-150, looked up)
chain: KETAAAKFERQHMDSSTSAASSSNYCNQMMKSRNLTKDRCKPVNTFVHESLADVQAVCSQKNVACKNGQTNCYQSYSTMSITDCRETGSSKYPNCAYKTTQANKHIIVACEGNPYVPVHFDASV
modifications: N-glycan; cysteines reduced; DyLight 680 (NHS ester) label in the pull-downs
notes: RNase B, reduced and denatured; also called RBun; unfolded RNase B; source: prepared from RB with 6 M guanidine hydrochloride and 100 mM DTT, denaturants removed by dialysis and a desalting column
molar excess for half-maximal inhibition of the Mnl1–Pdi1 disulfide adduct [1]: 2 fold molar excess
binding result [2]: binds
binding result [3]: binds
